Experimental data published in PMC4328881 (Cytokine, 2015).

Target: fibronectin (UniProt P02751 32-2477)
Assay: SPR

- Kd: 2600 nM
B1: 22 kDa (196 amino acids) OSM (natural protein, human, UniProt P13725 26-221, looked up)
chain: AAIGSCSKEYRVLLGQLQKQTDLMQDTSRLLDPYIRIQGLDVPKLREHCRERPGAFPSEETLRGLGRRGFLQTLNATLGCVLHRLADLEQRLPKAQDLERSGLNIEDLEKLQMARPNILGLRNNIYCMAQLLDNSDTAEPTKAGRGASQPPTPTPASDAFQRKLEGCRFLHGYHRFMHSVGRVFSKWGESPNRSRR
